In US20040068761:

System: FLP recombinase
Assay: cell_activity
Details: excision of y+ donor flanked by FRTs (33,668/33,790 w+ progeny lost y+), with I-SceI co-expressed in Drosophila

## FRT (FLP recombination target) from yeast 2 micron plasmid
  activity: 99.6%
